Biological target: T1, human fibrinogen (human, UniProt P02671 20-629; P02675 31-491; P02679 27-437, limits assumed)
T1 construct: Bought from Sigma and coated on 96-well plates; also called fibrinogen plate
T1 sequence (looked up) 1: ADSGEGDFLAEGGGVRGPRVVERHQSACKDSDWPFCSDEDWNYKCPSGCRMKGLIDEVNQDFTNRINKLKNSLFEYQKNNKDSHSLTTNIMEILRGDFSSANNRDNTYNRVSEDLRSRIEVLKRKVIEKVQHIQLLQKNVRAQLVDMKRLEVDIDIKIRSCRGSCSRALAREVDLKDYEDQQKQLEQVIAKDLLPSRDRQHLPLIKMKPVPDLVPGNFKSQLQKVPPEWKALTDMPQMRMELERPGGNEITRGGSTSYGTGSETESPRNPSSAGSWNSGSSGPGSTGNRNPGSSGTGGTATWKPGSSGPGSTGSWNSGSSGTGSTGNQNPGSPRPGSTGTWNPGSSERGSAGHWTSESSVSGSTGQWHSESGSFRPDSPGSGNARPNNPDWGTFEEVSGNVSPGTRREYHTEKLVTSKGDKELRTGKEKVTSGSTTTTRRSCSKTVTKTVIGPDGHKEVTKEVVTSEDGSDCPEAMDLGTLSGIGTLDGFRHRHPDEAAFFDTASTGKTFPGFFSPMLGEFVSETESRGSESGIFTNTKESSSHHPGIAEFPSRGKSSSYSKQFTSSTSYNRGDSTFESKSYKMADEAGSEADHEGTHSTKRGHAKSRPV
T1 sequence (looked up) 2: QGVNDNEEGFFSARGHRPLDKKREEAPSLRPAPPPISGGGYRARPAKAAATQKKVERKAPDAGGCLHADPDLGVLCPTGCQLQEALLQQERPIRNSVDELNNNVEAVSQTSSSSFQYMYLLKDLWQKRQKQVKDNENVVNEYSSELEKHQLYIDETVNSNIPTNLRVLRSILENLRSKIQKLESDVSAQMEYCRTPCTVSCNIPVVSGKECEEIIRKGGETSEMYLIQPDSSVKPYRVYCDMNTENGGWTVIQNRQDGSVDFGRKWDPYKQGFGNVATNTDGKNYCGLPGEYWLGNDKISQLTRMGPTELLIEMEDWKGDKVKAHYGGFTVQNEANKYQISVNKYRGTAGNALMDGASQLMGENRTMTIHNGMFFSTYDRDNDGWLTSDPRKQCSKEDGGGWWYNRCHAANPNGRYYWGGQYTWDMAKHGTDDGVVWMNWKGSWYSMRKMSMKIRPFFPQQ
T1 sequence (looked up) 3: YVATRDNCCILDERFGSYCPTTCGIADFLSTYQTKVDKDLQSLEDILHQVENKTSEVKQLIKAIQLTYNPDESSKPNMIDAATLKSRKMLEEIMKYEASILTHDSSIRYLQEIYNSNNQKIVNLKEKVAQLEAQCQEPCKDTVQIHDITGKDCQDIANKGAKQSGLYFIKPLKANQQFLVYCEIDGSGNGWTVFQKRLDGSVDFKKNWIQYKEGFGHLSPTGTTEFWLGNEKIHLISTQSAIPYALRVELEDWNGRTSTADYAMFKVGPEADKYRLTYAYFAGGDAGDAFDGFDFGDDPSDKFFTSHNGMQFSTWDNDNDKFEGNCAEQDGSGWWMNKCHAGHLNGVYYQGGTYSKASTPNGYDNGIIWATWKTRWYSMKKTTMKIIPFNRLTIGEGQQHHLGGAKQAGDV
Experiment: ELISA on fibrinogen-coated plate (1 µg/well)

B1: 102-10 scFv specific for human fibrin (scFv)
scFv: DIQMTQSPSSLSASLGGKVTITCKASQDINKYIAWFQHKPGKGPRLLIHYTSTLQPGIPSRFSGSGSGRDYSFSISNLEPEDLATYYCLQYDNLTWTFGGGTKLEIKRGSTSGSGKPGSGEGSTKGQIQLVQSGPELKKPGETVKISCKASGYTFTNYGMNWVKQAPGKGLKWMGWINTYTGEATYADDFKGRFAFSLETSANTAYVQINNLKNEDTATYFCARLMDYWGQGTSVTVSSGGGGSGGGGSC
**Q.** Does B1 bind?
**A.** no binding

— patent EP3344659B1 (Immunwork Inc., dated 2025)
